Earlier results on one substance are cited in publication PMC7561547.

The target in this data set is Her2 (Homo sapiens) (UniProt P04626).

With trastuzumab, the Kd was 0.1 nM.

A word on the Kd: it is the constant that tells how readily two partners part at equilibrium.
